Biological target: T1, SP62 (biotin-labelled peptide containing the 2F5 epitope sequence) (HIV-1, biotin-labelled (position not given))
T1 construct: The results speak of the 'MPER peptide' or 'peptide'; also called 2F5多肽; gp41 MPER多肽
T1 peptide: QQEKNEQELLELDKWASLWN
Assay: ELISA

B1: A2 (light-chain shuffled clone, Fab on phage) (Fab, V domains shown)
VH: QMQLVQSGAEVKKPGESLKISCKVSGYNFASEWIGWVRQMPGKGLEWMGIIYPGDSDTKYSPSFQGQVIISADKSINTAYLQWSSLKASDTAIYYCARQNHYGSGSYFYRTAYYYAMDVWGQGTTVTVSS
VL: DIQLTQSPSSLSASLGDKVTITCRASQHIKKYLNWYQQKPGKAPKLLIYGALNLQSGVPSRFSGRGSGTDFTLTISSLQPEDFATYYCQQSYSTPFTFGPGTKVDIKR
**Q.** Does B1 bind?
**A.** Result: binds

Reference: patent CN102731650A (SICHUAN HUIYU PHARMACEUTICAL CO LTD, dated 2012)
